Biological target: dual specificity anti-activin A/B antibody (human IgG1 format) (human)
Assay: BLI

Kd: 0.13 nM
B1: mature human activin A (ligand)
chain: GLECDGKVNICCKKQFFVSFKDIGWNDWIIAPSGYHANYCEGECPSHIAGTSGSSLSFHSTVINHYRMRGHSPFANLKSCCVPTKLRPMSMLYYDDGQNIIKKDIQNMIVEECGCS

From paper doi:10.1101/2025.06.13.659133
